Reference: US20130079286A1 (Pieris, published 2013)

Legend:
central peptide Aβ16-27 = molecular target: T1, central peptide Aβ16-27; assay: capture ELISA: mutein captured, Aβ16-27 titrated
T1 construct: Bought from the Peptide Speciality Laboratory
T1 peptide: KLVFFAEDVGSN

ovalbumin = molecular target: T2, ovalbumin (UniProt P01012 2-386); assay: capture ELISA: 1 µM Lcn2 protein captured via Strep-tag II on coated StrepMAB-Immo, biotinylated target titrated, ExtrAvidin/AP + pNPP
T2 sequence (looked up): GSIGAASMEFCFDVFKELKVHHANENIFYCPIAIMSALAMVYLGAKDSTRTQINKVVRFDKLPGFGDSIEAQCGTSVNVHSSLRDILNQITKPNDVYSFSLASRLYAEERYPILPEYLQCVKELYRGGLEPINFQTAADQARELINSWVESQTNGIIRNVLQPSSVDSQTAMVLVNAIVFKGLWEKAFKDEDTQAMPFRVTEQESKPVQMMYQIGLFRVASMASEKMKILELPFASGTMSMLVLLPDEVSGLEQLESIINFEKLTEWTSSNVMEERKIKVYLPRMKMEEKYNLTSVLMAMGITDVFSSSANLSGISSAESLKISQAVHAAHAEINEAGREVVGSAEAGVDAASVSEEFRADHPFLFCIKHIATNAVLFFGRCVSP
Description: (§1) FIG. 5 depicts the binding activity of the Lcn2 muteins H1-G1, S1-A4, and US7 in capture ELISAs with different biotinylated Aβ targets. StrepMAB-Immo at 10 μg/ml was immobilized on microtitre plates and employed for capturing of 1 JAM Lcn2 muteins via the Strep-tag H. In figures A to C the binding of the Lcn2 muteins S1-A4 and US7 to (A) biotinylated Aβ40, (B) biotinylated Trx-Aβ28, and (C) biotinylated MBP-Aβ40 are shown. Binding was detected by incubation with ExtrAvidin/AP and a subsequent chromogenic reaction with pNPP. Ovalbumin (Ova), thioredoxin (Trx), and maltose binding protein (MBP) were used as negative controls. Additionally, binding of wild-type (wt) lipocalin was tested. The data were fitted to a monovalent binding model.
(§2) For selective capturing of the Lcn2 muteins carrying the C-terminal Strep-tag II (Schmidt and Skerra (2007) Nat. Protoc. 2, 1528-1535), a 96-well MaxiSorp polystyrene microtitre plate (Nunc, Langenselbold, Germany) was coated with 10 μg/mL StrepMAB-Immo (IBA, Göttingen, Germany) in PBS over night at 4° C. and blocked with 3% (w/v) BSA in PBS/T at room temperature for 1 h. After 3 washing steps with PBS/T, 50 μL of a 1 μM solution of the purified Lcn2 muteins from Example 7 were applied to all wells for 1 h. After washing, 50 μL of a dilution series of the biotinylated targets Aβ40, MBP-Aβ40 or Trx-Aβ28 from Example 2 were added and incubated for 1 h whereby the biotinylated forms of Ova, MBP and Trx from Example 2 served as negative control proteins. The wells were washed again and bound conjugate was detected with 50 μL of ExtrAvidin/AP conjugate (Sigma-Aldrich, Steinheim, Germany) diluted 1:5000 in PBS/T for 1 h, followed by signal development in the presence of 100 μL 0.5 mg/mL p-nitrophenyl phosphate (AppliChem, Darmstadt, Germany) in 100 mM Tris/HCl, pH 8.8, 100 mM NaCl, 5 mM MgCl₂.

MBP-Aβ40 fusion protein [1] = molecular target: T3, MBP-Aβ40 fusion protein; assay: capture ELISA: mutein captured, biotinylated MBP-Aβ40 titrated
T3 construct: the entry may be a nucleic acid; Biotin-labelled in the capture ELISA, unlabeled in the direct ELISA and SPR; also called MBP-Abeta40
Description: as §1
For selective capturing of the Lcn2 muteins carrying the C-terminal Strep-tag II (Schmidt and Skerra (2007) Nat. Protoc. 2, 1528-1535), a 96-well MaxiSorp polystyrene microtitre plate (Nunc, Langenselbold, Germany) was coated with 10 μg/mL StrepMAB-Immo (IBA, Göttingen, Germany) in PBS over night at 4° C. and blocked with 3% (w/v) BSA in PBS/T at room temperature for 1 h. After 3 washing steps with PBS/T, 50 μL of a 1 μM solution of the purified Lcn2 muteins from Example 7 were applied to all wells for 1 h. […]

Trx-Aβ28 fusion protein [2] = molecular target: T4, Trx-Aβ28 fusion protein (Escherichia coli (strain K12), UniProt P0AA25 1-76 = thioredoxin, Biotin-labelled through an NHS ester (2:1) in the capture and competitive ELISAs; unlabeled in the direct ELISA and as competitor.); assay: capture ELISA: mutein captured, biotinylated Trx-Aβ28 titrated
T4 construct: the entry may be a nucleic acid; also called TrxAbeta28H6
Description: as §1, §2

MBP-Aβ40 fusion protein [3] = molecular target: T3, MBP-Aβ40 fusion protein; assay: SPR (Biacore), MBP-Aβ40 amine-coupled (1455 RU), mutein as analyte
Description: (§3) FIG. 8 depicts the kinetic real time analysis of Lcn2 muteins S1-A4 (A) and US7 (B) measured on a Biacore instrument at a flow rate of 10 μl/min. The MBP-Aβ40 fusion protein was coupled via amine chemistry on a CMD 200I chip (ΔRU=1455) and each of the purified Lcn2 muteins was applied in a series at different concentrations. The measured signal is shown as a grey line whereas the curve fit is depicted as a black line in each case.
(§4) Real time analysis of Lcn2 muteins was performed on a Biacore X system (Biacore, Uppsala, Sweden) using PBS/T (PBS containing 0.005% (v/v) Tween 20) as running buffer. A 50 μg/mL solution of MBP-Aβ40 from Example 2 in 10 mM Na-acetate, pH 4.5 was immobilized onto a […] chip (Xantec, Düsseldorf, Germany) using standard amine coupling chemistry, resulting in a ligand density of 1455 resonance units (RU). […] The sensorgrams were corrected by subtraction of the corresponding signals measured for the control channel, which had been activated and blocked with ethanolamine. […] During this step the kₒₙ and koff rates were fitted globally, while the maximum response difference Rₘₐₓ was fitted locally for each curve.

MBP-Aβ40 fusion protein [4] = molecular target: T3, MBP-Aβ40 fusion protein; assay: SPR (Biacore), MBP-Aβ40 amine-coupled; same experiment as the 1st table, row 20, column 3, printed with more digits
Description: as §3, §4

Trx-Aβ28 fusion protein [5] = molecular target: T4, Trx-Aβ28 fusion protein; assay: competitive ELISA: mutein captured, 40 nM biotinylated Trx-Aβ28 as tracer, unlabeled Trx-Aβ28 varied as competitor
Description: Alternatively, a “competitive” ELISA was performed in a similar manner as the “capture” ELISA described above. Again, after immobilizing StrepMAB-Immo and washing, 50 μL of a 1 μM solution of the purified Lcn2 mutein from Example 7 was applied to all wells for 1 h. After washing, the biotinylated target Trx-Aβ28 from Example 2 was applied at a fixed concentration of 5 nM (for S1-A4) or 40 nM (for US7) in the presence of varying concentrations of the free non-labeled Trx-Aβ28 target as competitor. Starting with a 100-fold excess, the competitor concentration was decreased by the factor 3 in each step. In this case, the data were fitted to the sigmoidal equation

MBP-Aβ40 fusion protein [6] = molecular target: T3, MBP-Aβ40 fusion protein; assay: SPR (Biacore X), MBP-Aβ40 amine-coupled, mutein as analyte
Description: as §4

[7] = molecular target: T5, biotinylated Aβ40 peptide (human, C-terminal biotin group attached via a lysine spacer); assay: capture ELISA: mutein captured via Strep-tag II on StrepMAB-Immo, biotinylated Aβ40 titrated
T5 construct: Synthetic peptide (Peptide Speciality Laboratory) with a C-terminal biotin on a lysine spacer; used in the capture ELISAs
Description: as §1, §2

MBP-Aβ40 fusion protein [8] = molecular target: T3, MBP-Aβ40 fusion protein; assay: direct ELISA: MBP-Aβ40 coated, mutein titrated, detected via Strep-tag II
Description: (§5) The Aβ targets Trx-Aβ28 and MBP-Aβ40 as well as the control protein maltose binding protein (MBP) were immobilized at 2 μM in PBS over night. Bound Lcn2 muteins were detected via their Strep-tag II using Streptavidin/AP followed by a chromogenic reaction with pNPP. As a control, the binding of wild-type (wt) lipocalin was tested. The data were fitted to a monovalent binding model.
(§6) Alternatively, for a “direct” ELISA, 2 μM unlabeled Aβ40 target from Example 2 was adsorbed onto a 96-well MaxiSorp polystyrene microliter plate (Nunc, Langenselbold, Germany) and incubated with the purified Lcn2 mutein, which was detected via the Strep-tag II using a 1:1500 dilution of Streptavidin/AP conjugate (GE Healthcare UK Ltd, Buckinghamshire, UK). As a control, 2 μM MBP from Example 2 was adsorbed onto the ELISA plate. Absorption at 405 nm was measured in a SpectraMax 250 reader (Molecular Devices, Sunnyvale, USA).

[9] = molecular target: T6, Aβ40 peptide, non-labeled (human); assay: SPOT membrane of overlapping Aβ40 peptides, 100 nM mutein
T6 construct: Non-labeled synthetic peptide (W. M. Keck Laboratory); also called Abeta40; amyloid beta peptide

Trx-Aβ28 fusion protein [10] = molecular target: T4, Trx-Aβ28 fusion protein; assay: direct ELISA: Trx-Aβ28 coated, mutein titrated, detected via Strep-tag II
Description: as §5, §6

Trx-Aβ28 fusion protein [11] = molecular target: T4, Trx-Aβ28 fusion protein; assay: capture ELISA: 1 µM Lcn2 protein captured via Strep-tag II on coated StrepMAB-Immo, biotinylated target titrated, ExtrAvidin/AP + pNPP
Description: as §1, §2

[12] = molecular target: T5, biotinylated Aβ40 peptide; assay: as above
Description: as §1, §2

[13] = molecular target: T6, Aβ40 peptide, non-labeled; assay: SPOT membrane of overlapping Aβ40 peptides
[14] = molecular target: T7, recombinant human fibronectin fragment FN7B8 (human, UniProt P02751 1173-1448); assay: ELISA: FN7B8 coated, Lcn2 protein titrated, detected via Strep-tag II with Streptavidin-alkaline phosphatase + pNPP
T7 construct: no separate number is printed for the protein, so the entry may be a nucleic acid
Description: FIG. 12 depicts binding activity in the ELISA. A microliter plate was coated with the purified proteins FN7B8 and FN789 and incubated with a dilution series of the selected Lcn2 muteins, followed by detection with Streptavidin-alkaline-phosphatase conjugate and pNPP substrate.
To adsorb FN7B8 or FN789 onto the surface of a 96-well Nunc Maxisorp plate (Thermo Fisher Scientific, Langenselbold, Germany) 50 μl of a 100 μg/ml protein solution in TBS/E was added per well and incubated at room temperature for 2 h. Additionally, to include control proteins, blank wells were exposed to 120 μl 2% (w/v) BSA (AppliChem, Darmstadt, Germany) in TBS/ET. […] The wells were washed again and bound Lcn2 muteins were detected with 50 μL of Streptavidin-alkaline phosphatase conjugate (GE Healthcare, Munich, Germany) diluted 1:1500 in TBS/T for 1 h, followed by signal development in the presence of 50 μl 0.5 mg/ml p-nitrophenyl phosphate in 100 mM Tris/HCl, 100 mM NaCl, 5 mM MgCl₂, pH 8.8. The time course of absorption AA/At at 405 nm was measured in a SpectraMax 250 reader (Molecular Devices, Sunnyvale, Calif.) and the data were fitted with KaleidaGraph software (Synergy software, Reading, Pa.) to the equation

T5 sequence (peptide, as listed by the source): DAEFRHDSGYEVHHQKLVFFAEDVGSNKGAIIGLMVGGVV
T6 sequence (peptide, as listed by the source): as above
T7 sequence (P02751 other isoform, or with tags, fused parts or gaps limits assumed): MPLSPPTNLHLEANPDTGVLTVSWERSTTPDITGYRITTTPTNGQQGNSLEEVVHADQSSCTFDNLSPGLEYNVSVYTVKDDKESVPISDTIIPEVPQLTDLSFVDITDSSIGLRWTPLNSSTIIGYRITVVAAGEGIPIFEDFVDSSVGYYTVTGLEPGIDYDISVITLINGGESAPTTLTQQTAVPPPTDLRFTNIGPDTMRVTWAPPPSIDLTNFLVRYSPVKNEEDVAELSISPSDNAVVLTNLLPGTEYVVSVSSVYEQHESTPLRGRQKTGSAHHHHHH

B1: Lcn2 mutein US7 (designed binder)
chain: QDSTSDLIPAPPLSKVPLQQNFQDNQFHGKWYVVGVAGNKSLREDKDPWKMYATIYELKEDKSYNVTSVGFGTKKCHYKIRTFVPGSQPGEFTLGRIKSRPGRTSALVRVVSTNYNQHAMVFFKVVQQNRESFNITLYGRTKELTSELKENFIRFSKSLGLPENHIVFPVPIDQCIDG
For B1, the Kd (central peptide Aβ16-27) was 2.1 nM, the binding result (ovalbumin) was “no binding (tested: 250 nM)” and the Kd (MBP-Aβ40 fusion protein [1]) was 11.4 nM. The Kd (Trx-Aβ28 fusion protein [2]) was 2.4 nM, the koff (MBP-Aβ40 fusion protein [3]) was 0.000252 s⁻¹ and the kon (MBP-Aβ40 fusion protein [3]) was 202000 M⁻¹ s⁻¹. For the same binder, the Kd (MBP-Aβ40 fusion protein [4]) was 1.25 nM, the Kd (Trx-Aβ28 fusion protein [5]) was 76.9 nM and the Kd (MBP-Aβ40 fusion protein [6]) was 1.3 nM. For the same binder, the Kd [7] was 6.8 nM, the Kd (MBP-Aβ40 fusion protein [8]) was 49.7 nM and the binding result [9] was “binds”. The Kd (Trx-Aβ28 fusion protein [10]) was 9.6 nM.

B2: recombinant wild-type human Lipocalin 2 (other)
chain: QDSTSDLIPAPPLSKVPLQQNFQDNQFQGKWYVVGLAGNAILREDKDPQKMYATIYELKEDKSYNVTSVLFRKKKCDYWIRTFVPGSQPGEFTLGNIKSYPGLTSYLVRVVSTNYNQHAMVFFKKVSQNREYFKITLYGRTKELTSELKENFIRFSKSLGLPENHIVFPVPIDQCIDG
notes: also called wt Lcn2; wild type Lcn2
B2: no binding (Trx-Aβ28 fusion protein [11]); no binding (tested: 250 nM) (ovalbumin); no binding [12]. B2: no binding (tested: 100 nM) [13]; no binding (tested: 250 nM) [14].
